Reference: article PMC11700871 (Theranostics, 2025)
Read-outs that look alike come from different tables or passages of the source. Each block holds one compound with its values, some of them ahead of it. Where a SMILES comes first, the peptide text is derived from it. The star is where a group is joined. X1 = O=C(O)c1cc(N*)ccc1O

Tests used:
[1] = Biodistribution by NIRF imaging in naive and ALF mice; format: in vivo, C57BL/6 mice; details: ALF mice, intravenous
Experimental: The in vivo behavior of SPNs was assessed in healthy mice and APAP-induced ALF models. […] Fluorescence intensity in the images was quantified using LivingImage software. Ex vivo NIRF imaging was conducted with major organs collected from the mice 9 h post-treatment.

[2] = tested on: APAP-induced ALF model; assay: Therapeutic efficacy in APAP-induced ALF mouse model; format: in vivo, C57BL/6 mice; details: ALF mice
Experimental: The in vivo therapeutic efficacy of SPNs was evaluated in an APAP-induced ALF model.
Following 24 h of treatment, liver tissue was collected from the mice and then stained with H&E, fluorescent dye-conjugated antibodies (TNF-α, 506303, Biolegend; IL-6, 504503, Biolegend; and IL-10, 505005, Biolegend) or TUNEL (G3250, Promega). A portion of the liver tissues was dispersed in lysis buffer and subsequently centrifuged to remove debris, followed by western blot for MAPK and assessment of cytokines, such as TNF-α, IL-6, IL-1β and IL-10, via ELISA assays. Hematological parameters were analyzed by KNOTUS (Incheon, Republic of Korea).

[3] = tested on: normal C57BL/6 mice; details: mouse, in vivo
Experimental: The body weight was measured every two days. Seven days after treatment, the hematological parameters were assessed, including AST, ALT, BUN, creatinine, LDH, CK, red blood cell (RBC), hemoglobin (HGB), hematocrit (HCT), platelet (PLT), white blood cell (WBC), neutrophil (NEU) and lymphocyte (LYM). Major organs were collected from the mice and then observed using optical microscopy after H&E staining (BX 51, Olympus, USA). The levels of TNF-α, IL-1β and IL-6 in homogenized kidney tissues were quantified via ELISA assays.

[4] = tested on: healthy LO-2 cells; assay: Release of DAMPs (HMGB1, HSP70) from healthy hepatocytes; details: supernatants, western blot
Experimental: (§2) The cells were then washed with DPBS and dispersed in lysis buffer, followed by centrifugation at 12,000 rpm for 30 min to remove cell debris. Subsequently, the proteins were quantified using a BCA assay kit (23221, Thermo Fisher Scientific), boiled after mixing with sodium dodecyl sulfate loading buffer (NaraBio, Gyeonggi-do, Republic of Korea) for 5 min, and separated by 10% SDS polyacrylamide gel electrophoresis. […] HMGB1 and HSP70 were analyzed in the supernatants after incubating LO-2 cells using the same protocol described above. Finally, the membranes were incubated with goat anti-rabbit immunoglobulin-HRP antibody for 2 h.

[5] = tested on: LO-2 cells; assay: Cytotoxicity assay (CCK-8), LO-2; format: cell-based, human; details: 0 to 20 mM, 24 h, compared with mesalamine
[6] = target: T1, matrix metalloproteinase 9 (MMP-9) (Homo sapiens, UniProt P14780); assay: Enzyme-specific cleavage by HPLC, MMP-9; format: in vitro ADME; details: 24 h, pH 5.5 MES buffer, 37°C
T1 construct: purchased R&D systems 911-MP
Experimental: (§1) After a 30 min reaction, the final product was purified and analyzed using an LC/MS system (Agilent 1200 Series HPLC system). The hydrodynamic size and zeta potential were analyzed by using a Zetasizer (Nano ZS, Malvern Instruments, Worcestershire, UK). The morphology of SPNs in distilled water was observed using transmission electron microscopy (CM-200, Philips, USA). The target enzyme-specific cleavage was evaluated through HPLC analysis after incubation with Cat-B (953CY, R&D systems, MN, USA), Cat-E (1294-AS, R&D systems), Cat-D (1014-AS, R&D systems), Cat-L (952-CY, R&D systems), MMP-9 (911-MP, R&D systems) or Cas-3 (707-C3/CF, R&D systems) in pH 5.5 2-(N-morpholino)ethane sulfonic acid (MES) buffer at 37°C.

[7] = tested on: healthy LO-2 cells
Experimental: as §2

[8] = target: T2, Caspase 3 (Cas-3) (Homo sapiens, UniProt P42574); assay: Enzyme-specific cleavage by HPLC, Caspase 3; format: in vitro ADME; details: 24 h, pH 5.5 MES buffer, 37°C
T2 construct: purchased R&D systems 707-C3/CF
T2 sequence (P42574 29-175 limits assumed): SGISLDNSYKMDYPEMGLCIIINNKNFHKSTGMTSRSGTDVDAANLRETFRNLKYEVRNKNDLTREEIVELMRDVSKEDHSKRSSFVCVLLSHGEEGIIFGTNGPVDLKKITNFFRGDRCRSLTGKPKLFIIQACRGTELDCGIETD
T2 sequence (P42574 176-277 limits assumed): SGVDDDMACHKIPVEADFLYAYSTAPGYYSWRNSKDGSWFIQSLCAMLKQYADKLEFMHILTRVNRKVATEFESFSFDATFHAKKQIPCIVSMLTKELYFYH
Experimental: as §1

[9] = tested on: HepG2 cells; assay: Cytotoxicity assay (CCK-8), HepG2; format: cell-based; details: 0 to 20 mM, 24 h, compared with mesalamine
[10] = target: T3, Cat-E (Homo sapiens, UniProt P14091); assay: Enzyme-specific cleavage by HPLC, Cat-E; format: in vitro ADME; details: 24 h, pH 5.5 MES buffer, 37°C
T3 construct: purchased R&D systems 1294-AS
T3 sequence (P14091 54-396): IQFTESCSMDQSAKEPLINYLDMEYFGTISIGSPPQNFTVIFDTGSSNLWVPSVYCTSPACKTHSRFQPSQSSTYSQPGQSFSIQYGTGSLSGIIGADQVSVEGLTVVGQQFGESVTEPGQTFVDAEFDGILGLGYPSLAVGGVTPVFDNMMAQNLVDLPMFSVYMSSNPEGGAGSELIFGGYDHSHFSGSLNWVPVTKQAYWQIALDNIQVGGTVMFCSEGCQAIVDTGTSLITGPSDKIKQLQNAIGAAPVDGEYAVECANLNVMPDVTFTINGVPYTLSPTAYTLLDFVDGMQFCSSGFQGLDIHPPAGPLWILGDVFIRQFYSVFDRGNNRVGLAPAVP
Experimental: as §1

[11] = target: T4, Cat-L (Homo sapiens, UniProt P07711); assay: Enzyme-specific cleavage by HPLC, Cat-L; format: in vitro ADME; details: 24 h, pH 5.5 MES buffer, 37°C
T4 construct: purchased R&D systems 952-CY
Experimental: as §1

[12] = tested on: MIHA cells; assay: Cytotoxicity assay (CCK-8), MIHA; format: cell-based, human; details: 0 to 20 mM, 24 h, compared with mesalamine
[13] = target: T5, Cat-D (Homo sapiens, UniProt P07339); assay: Enzyme-specific cleavage by HPLC, Cat-D; format: in vitro ADME; details: 24 h, pH 5.5 MES buffer, 37°C
T5 construct: purchased R&D systems 1014-AS
Experimental: as §1

[14] = target: T6, Cat-B (Homo sapiens, UniProt P07858); assay: Enzyme-specific cleavage by HPLC, Cat-B; format: in vitro ADME; details: 1 h, pH 5.5 MES buffer, 37°C, HPLC and LC/MS
T6 construct: purchased R&D systems 953CY
Experimental: as §1

[15] = tested on: LO-2 cells; assay: Expression of Cat-B and CHOP in hepatocytes after drug exposure; format: cell-based, human; details: LO-2 cells after treatment with APAP
Text: We initially investigated the changes within human hepatocytes in response to drug exposure.

T5 sequence (P07339 65-412): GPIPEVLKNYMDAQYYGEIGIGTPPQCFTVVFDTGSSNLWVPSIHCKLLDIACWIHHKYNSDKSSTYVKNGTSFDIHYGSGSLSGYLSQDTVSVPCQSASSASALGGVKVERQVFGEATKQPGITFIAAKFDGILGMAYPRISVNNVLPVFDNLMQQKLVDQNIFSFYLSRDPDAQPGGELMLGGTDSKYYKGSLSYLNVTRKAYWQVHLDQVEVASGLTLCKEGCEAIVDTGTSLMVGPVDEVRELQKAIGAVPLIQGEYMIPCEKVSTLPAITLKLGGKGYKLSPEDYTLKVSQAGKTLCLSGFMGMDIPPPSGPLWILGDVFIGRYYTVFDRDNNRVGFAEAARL
T4 sequence (P07711 114-333): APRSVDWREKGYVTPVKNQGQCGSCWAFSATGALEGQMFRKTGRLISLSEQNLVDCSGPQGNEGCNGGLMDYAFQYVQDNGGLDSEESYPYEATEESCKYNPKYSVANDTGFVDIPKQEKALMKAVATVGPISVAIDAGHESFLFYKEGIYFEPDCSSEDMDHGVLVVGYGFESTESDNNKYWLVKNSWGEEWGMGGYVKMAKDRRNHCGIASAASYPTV
T1 sequence (P14780 94-707): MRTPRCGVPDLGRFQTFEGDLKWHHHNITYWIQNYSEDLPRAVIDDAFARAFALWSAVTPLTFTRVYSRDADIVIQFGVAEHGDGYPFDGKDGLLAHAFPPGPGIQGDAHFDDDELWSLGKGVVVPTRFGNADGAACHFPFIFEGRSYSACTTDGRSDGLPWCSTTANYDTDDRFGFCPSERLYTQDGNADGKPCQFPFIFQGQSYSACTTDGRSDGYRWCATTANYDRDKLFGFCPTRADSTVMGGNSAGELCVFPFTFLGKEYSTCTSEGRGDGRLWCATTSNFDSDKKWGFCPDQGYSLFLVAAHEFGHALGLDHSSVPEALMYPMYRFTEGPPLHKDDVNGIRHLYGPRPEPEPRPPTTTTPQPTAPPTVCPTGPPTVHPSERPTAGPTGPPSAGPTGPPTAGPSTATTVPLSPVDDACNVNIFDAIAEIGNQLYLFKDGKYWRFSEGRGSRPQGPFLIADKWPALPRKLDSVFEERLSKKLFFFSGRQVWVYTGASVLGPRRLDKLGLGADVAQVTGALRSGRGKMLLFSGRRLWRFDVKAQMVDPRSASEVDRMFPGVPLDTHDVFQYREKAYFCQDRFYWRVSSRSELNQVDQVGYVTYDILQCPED

in vivo clearance (NIRF imaging) [1]: rapid in vivo clearance
Structure (SMILES): CCN1\C(=C/C=C/C=C/C2=[N+](CCCCCC(=O)O)c3ccc4c(S(=O)(=O)O)cc(S(=O)(=O)O)cc4c3C2(C)C)C(C)(C)c2c1ccc1c(S(=O)(=O)[O-])cc(S(=O)(=O)O)cc21 [free Cy5.5]

Structure (SMILES): CC(=O)N[C@@H](CS)C(=O)O [NAC, N-acetylcysteine]
effects in preventing body weight loss and histohematological changes ([2]; NAC 100 mg/kg i.v., compared with SPNs): limited effects

Structure (SMILES): Nc1ccc(O)c(C(=O)O)c1 [mesalamine]
histopathological toxicities in major organs [3]: substantial structural abnormalities and damaged areas in major organs | body weight change ([2]; 24 h of treatment, mesalamine or SPNs 5 mg/kg mesalamine content i.v.): even more severe weight loss relative to the PBS group | AST and ALT levels ([2]; 24 h post-treatment, 5 mg/kg mesalamine content i.v.): higher levels of these parameters compared to the PBS group | release of DAMPs (HMGB1 and HSP70) [4]: significantly higher levels

Structure (SMILES): CC(=O)N[C@@H](Cc1ccccc1)C(=O)N[C@@H](CCCNC(=N)N)C(=O)N[C@@H](CCCNC(=N)N)C(=O)NCC(=O)Nc1ccc(O)c(C(=O)O)c1 [SPNs] (Ac-FRRG-X1)
toxicity to LO-2 cells (cell viability) [5]: significantly minimized the toxicity of mesalamine | cleavage upon incubation with MMP-9 [6]: no detectable cleavage | release of DAMPs (HMGB1 and HSP70) [7]: did not increase DAMP release | cleavage upon incubation with Cas-3 [8]: no detectable cleavage | histopathological toxicities in major organs [3]: not observed | toxicity to HepG2 cells (cell viability) [9]: significantly minimized the toxicity of mesalamine | cleavage upon incubation with Cat-E [10]: no detectable cleavage | cleavage upon incubation with Cat-L [11]: no detectable cleavage | toxicity to MIHA cells (cell viability) [12]: significantly minimized the toxicity of mesalamine | cleavage upon incubation with Cat-D [13]: no detectable cleavage | cleavage upon incubation with Cat-B [14]: completely decomposed into mesalamine

Structure (SMILES): CC(=O)Nc1ccc(O)cc1 [APAP, acetaminophen]
Cat-B level compared to the naive cells [15]: 4.22 fold | increase in C/EBP homologous protein (CHOP) compared to the naive cells [15]: 1.58 fold
